This is an account of results in US20260209359A1 (NEXTERA, published 2026).

Test [1] addresses HLA-A*02:01/MAGE-A4^230-239 displayed on cells (MAGE-A4^230-239 pulsed T2 cells; NCI-H1703, A375, THP1, … (human, UniProt P04439 25-365 at identity 0.94); P61769 21-119). The experiment in a line: cell-based or functional assay.
In test [2] the target is T1, HLA-A*02:01/MAGE-A4^230-239, soluble recombinant biotinylated pHLA (human, UniProt P04439 25-299 at identity 0.94); P61769 21-119, biotinylated).
T1 construct: Empty biotinylated HLA-A2 monomers (Tetramer Shop) loaded with synthetic peptide; also called MAGE-A4 pMHC; MAGE-A4-pHLA
Nature of the test: ELISA, soluble biotinylated pHLA on neutravidin, scDb, protL-HRP. Background: In an ELISA, binding on a coated surface is turned into a signal by an enzyme label.
Method: ELISA plates were coated with 5 μg/mL NeutrAvidin in PBS and incubated 16 h/4° C. (step (a)) and blocked with 5% skim milk powder in PBST for 1 h/room temperature (RT) (step (c)). […] Bound phage particles were detected with an anti-Fd antibody (anti-M13-HRP (Amersham Biosciences)), whereas bound IgG1 and scDb was detected with HRP conjugated protein L (Genscript) (step (i)). […] Plates were developed with TMB solution and read at 450 nm using a microplate reader (step (k)). Between each layer, the plates were washed 3× with PBST (steps (b), (d), (f), (h), and (j)).

A word on the EC50: it is the concentration that produces a half-maximal response.

B1: AMC3 scDb (bispecific antibody)
chain: DIRVTQSPSSLSASVGDRVTITCRASQNIMWYLNWYQQKPGKAPKLLIYAASSLQSGVPSRFSGSGSGTDFTLTISSLQPEDFATYYCQQSYSTPYTFGQGTKLEIKGGGGSEVQLQQSGPELVKPGASMKISCKASGYSFTGYTMNWVKQSHGKNLEWMGLINPYKGVSTYNQKFKDKATLTVDKSSSTAYMELLSLTSEDSAVYYCARSGYYGDSDWYFDVWGAGTTVTVSSGGGGSGGGGSGGGGSDIQMTQTTSSLSASLGDRVTISCRASQDIRNYLNWYQQKPDGTVKLLIYYTSRLHSGVPSKFSGSGSGTDYSLTISNLEQEDIATYFCQQGNTLPWTFAGGTKLEIKGGGGSQVQLVQSGAEVKKPGASVKVSCKVSGPKLYEVSMHWVRQAPGKGLEWMGGFDPEDGETIYAQKFQGRVTMTEDTSTDTAYMELSSLRSEDTAVYYCATDQGASWGFYWGQGTLVTVSS
notes: as m68
Take B1: in test [1], the “IFNγ EC50 vs. target positive cells (pM)” value worked out at 7.3 pM. Further, the EC50 in test [2] was determined as 0.35 nM.

B2: AMC4 scDb (bispecific antibody)
chain: DIRVTQSPSSLSASVGDRVTITCRADHHIFWYLNWYQQKPGKAPKLLIYAASSLQSGVPSRFSGSGSGTDFTLTISSLQPEDFATYYCQQSYSTPYTFGQGTKLEIKGGGGSEVQLQQSGPELVKPGASMKISCKASGYSFTGYTMNWVKQSHGKNLEWMGLINPYKGVSTYNQKFKDKATLTVDKSSSTAYMELLSLTSEDSAVYYCARSGYYGDSDWYFDVWGAGTTVTVSSGGGGSGGGGSGGGGSDIQMTQTTSSLSASLGDRVTISCRASQDIRNYLNWYQQKPDGTVKLLIYYTSRLHSGVPSKFSGSGSGTDYSLTISNLEQEDIATYFCQQGNTLPWTFAGGTKLEIKGGGGSQVQLVQSGAEVKKPGASVKVSCKVSGPKLYEVSMHWVRQAPGKGLEWMGGFDPEDGETIYAQKFQGRVTMTEDTSTDTAYMELSSLRSEDTAVYYCATDQGASWGFYWGQGTLVTVSS
notes: as m68
Regarding B2, the “IFNγ EC50 vs. target positive cells (pM)” value in test [1] came to 9.2 pM. Besides, the EC50 in test [2] was found to be 0.36 nM.

B3: AMC7 scDb (bispecific antibody)
chain: DIRVTQSPSSLSASVGDRVTITCRASQNIMWYLNWYQQKPGKAPKLLIYAASSLQSGVPSRFSGSGSGTDFTLTISSLQPEDFATYYCQQSYSTPYTFGQGTKLEIKGGGGSEVQLQQSGPELVKPGASMKISCKASGYSFTGYTMNWVKQSHGKNLEWMGLINPYKGVSTYNQKFKDKATLTVDKSSSTAYMELLSLTSEDSAVYYCARSGYYGDSDWYFDVWGAGTTVTVSSGGGGSGGGGSGGGGSDIQMTQTTSSLSASLGDRVTISCRASQDIRNYLNWYQQKPDGTVKLLIYYTSRLHSGVPSKFSGSGSGTDYSLTISNLEQEDIATYFCQQGNTLPWTFAGGTKLEIKGGGGSQVQLVQSGAEVKKPGASVKVSCKVSGPKLYEVSMHWVRQAPGKGLEWMGGFDPEDGETIYAQKFQGRVTMTEDTSTDTAYMELSSLRSEDTAVYYCATDQGSSWGFYWGQGTLVTVSS
notes: as m68
For B3, the “IFNγ EC50 vs. target positive cells (pM)” value in test [1] is 8.5 pM. For the same molecule, the EC50 in test [2] amounted to 0.41 nM.

B4: AMC5 scDb (bispecific antibody)
chain: DIRVTQSPSSLSASVGDRVTITCRADIDIRWYLNWYQQKPGKAPKLLIYAASSLQSGVPSRFSGSGSGTDFTLTISSLQPEDFATYYCQQSYSTPYTFGQGTKLEIKGGGGSEVQLQQSGPELVKPGASMKISCKASGYSFTGYTMNWVKQSHGKNLEWMGLINPYKGVSTYNQKFKDKATLTVDKSSSTAYMELLSLTSEDSAVYYCARSGYYGDSDWYFDVWGAGTTVTVSSGGGGSGGGGSGGGGSDIQMTQTTSSLSASLGDRVTISCRASQDIRNYLNWYQQKPDGTVKLLIYYTSRLHSGVPSKFSGSGSGTDYSLTISNLEQEDIATYFCQQGNTLPWTFAGGTKLEIKGGGGSQVQLVQSGAEVKKPGASVKVSCKVSGPKLYEVSMHWVRQAPGKGLEWMGGFDPEDGETIYAQKFQGRVTMTEDTSTDTAYMELSSLRSEDTAVYYCATDQGASWGFYWGQGTLVTVSS
notes: as m68
As for B4, the “IFNγ EC50 vs. target positive cells (pM)” value in test [1] amounted to 8 pM. The concentration for a half-maximal effect (EC50) in test [2] came out at 0.32 nM.
